Test results published in patent publication US5973110A, “Cytotoxic T-lymphocyte antigen as cysteine protease inhibitor” (Bayer Corporation, priority 1995, dated 1999).
No end group written: not given here.

Assays:
[1] = tested on: cartilage proteoglycan degradation; conditions: at 100 uM concentrations; cited from earlier work
[2] = tested on: articular cartilage explants from calf knee joints; assay: Micro organ culture assay (MOCA): IL-1 induced proteoglycan release from articular cartilage explants; format: cell-based; conditions: IL-1 induced degradation; p117 10 uM (best concentration)
Text: The assay system used for testing the peptides for inhibitory activity of proteoglycan release is a micro organ culture assay (MOCA). Papain; cetyl pyridinium chloride and chondroitin sulfate type C was purchased from Sigma Chemical Co. (St. Louis, Mo.). Interleukin 1 alpha was purchased from Collaborative Research. ABCase, chrondroitinase, ABC lyase, and keratanase were obtained from ICI. Na ^35 SO4 was purchased from NEN.
Articular cartilage explants from calf knee joints were maintained in culture in DMEM medium containing 20 uCi/ml Na ^35 SO4 for 48 hours for the incorporation of label into newly synthesized proteoglycan (PG). The radiolabelled medium was then removed, the radiolabelled explants washed 3×30 ml cold DMEM and placed into a 96 well plate with or without IL-1 (Interleukin-1 alpha, 50 U/ml) and various concentrations of p117. The explants were incubated first for 24 hours in the presence of IL-1 in order to ensure initiation of IL-1 induced auto-catalysis prior to the addition of various metalloprotease inhibitors for an additional 72 hours.
The newly synthesized radiolabelled proteoglycans released during the cultivation period were subjected to enzymatic digestion with papain. […] The filter was dried and counted after addition of 10 mls of scintillation cocktail (scintillant).

human liver Cathepsin L [3] = molecular target: T1, human liver Cathepsin L (Homo sapiens, UniProt P07711); assay: Cathepsin L assay (fluorescence, Z-Phe-Arg-AMC hydrolysis); format: biochemical; set-up: from tissue; b54 says 'human kidney cell cathepsins'
Target sequence in this assay (P07711 114-288 limits assumed): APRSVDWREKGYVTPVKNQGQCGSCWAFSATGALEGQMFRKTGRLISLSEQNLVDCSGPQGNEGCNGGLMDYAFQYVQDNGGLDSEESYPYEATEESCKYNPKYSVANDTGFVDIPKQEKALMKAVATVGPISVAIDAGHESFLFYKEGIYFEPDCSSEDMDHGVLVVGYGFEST
Target sequence in this assay (P07711 292-333 limits assumed): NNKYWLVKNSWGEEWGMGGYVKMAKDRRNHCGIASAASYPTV
Procedure: A fluorescence based assay was set up according to Barrett and Kirschke (Barrett et al., 1981, Meth. in Enz., 80:535).
After an incubation period of 6 minutes at room temperature, 1500 μl of 0.1% Brij 35 was added. The substrate Z-Phe-Arg-AMC (AMC is aminomethyl-coumarin) was added at a final concentration of either 2.5 μM or 5.0 μM.
The fluorescence of the free aminomethyl-coumarin was measured in an SLM 4800s fluorimeter by excitation at 370 nm and emission at 432 nm over a six minute time period. […] In order to calculate the velocities, a linear least squares analysis was performed over the initial linear part of the data. […]
These peptides were tested for inhibition of Cathepsin L activity using the assays described previously. Briefly, Cathepsin L (19 pM final as determined by active site titration using E-64, Barret & Kirschke, 1991) was added to 750 uL of assay buffer consisting of 340 nM sodium acetate--60 mM acetic acid (pH 5.5), 4 mM disodium EDTA, and 8 mM DTT. […] The fluorescence of the free aminomethylcoumarin was measured in an SLM 4800s fluorimeter at excitation of 370 nm and an emission at 432 nm over a 6 minute time period. Fluorescence was converted to uM AMC released by using a standard curve generated by plotting uM AMC vs. fluorescence, and plotted vs. time. […]

human liver Cathepsin L [4] = molecular target: T1, human liver Cathepsin L
human liver Cathepsin L [5] = molecular target: T1, human liver Cathepsin L; remark: listed apart in the source
human liver Cathepsin L [6] = molecular target: T1, human liver Cathepsin L; remark: listed apart in the source
cartilage degradation = conditions: rabbits, IL-1 injected into joint capsule; cited from earlier work

Q: With `CC(C)C[C@H](NC(=O)[C@H]1O[C@@H]1C(=O)O)C(=O)NCCCCN=C(N)N` (relative stereo) [E64, trans-epoxysuccinyl-L-leucylamido-(4-guanido)butane] as the molecule, how does the “inhibition of IL-1 stimulated cartilage proteoglycan degradation (in words)” value [1] read?
A: did not work

Q: With `CC(C)CCNC(=O)[C@H](CC(C)C)NC(=O)[C@H]1O[C@@H]1C(=O)O` [Ep475] as the molecule, how does the “inhibition of IL-1 stimulated cartilage proteoglycan degradation (in words)” value [1] read?
A: did not work

Q: For YSLDEERHRRLMWEENKKKIEAH [p117], which “% inhibition of proteoglycan release” value [2] is on record?
A: about 30%

Q: And the IC50 (human liver Cathepsin L [3]; Cathepsin L 19 pM, 5.0 uM Z-Phe-Arg-NMec(AMC), Dixon plot V-/V+ vs. peptide concentration, read-out: i.c. 50 (synthetic peptides, Cathepsin L))?
A: 5.3 µM

Q: And the “inhibitory activity of the peptides (in words)” value (human liver Cathepsin L [3]; summary in Example 7)?
A: best activity

Q: With “recombinant (murine) CTLA-2β, dimeric form” as the molecule, how does the i.c. 50 in Cathepsin L Assay (human liver Cathepsin L [4]) read?
A: 1.1 nM

Q: For “recombinant (murine) CTLA-2β, monomeric form”, which i.c. 50 in Cathepsin L Assay (human liver Cathepsin L [4]) is on record?
A: 18.2 nM

Q: And the inhibition of hydrolysis of Z-Phe-Arg-AMC by Cathepsin L (fluorescence) (human liver Cathepsin L [5])?
A: 60%

Q: Which inhibition of hydrolysis of Z-Phe-Arg-NMec(AMC) by Cathepsin L (fluorescence) (% inhibition at 10 uM) (human liver Cathepsin L [6]) does the source give for ENKKKIEAHNADYERGKTSFC [p089] here?
A: 25

Q: For CRGEMAPDLPEYEDLG [p092], which i.c. 50 (human liver Cathepsin L [6]) is on record?
A: 41 µM

B1: PN-1: large serine protease inhibitor PN-1 (43 KD) (protein, UniProt P07093 20-398, looked up)
Glia-derived nexin: SHFNPLSLEELGSNTGIQVFNQIVKSRPHDNIVISPHGIASVLGMLQLGADGRTKKQLAMVMRYGVNGVGKILKKINKAIVSKKNKDIVTVANAVFVKNASEIEVPFVTRNKDVFQCEVRNVNFEDPASACDSINAWVKNETRDMIDNLLSPDLIDGVLTRLVLVNAVYFKGLWKSRFQPENTKKRTFVAADGKSYQVPMLAQLSVFRCGSTSAPNDLWYNFIELPYHGESISMLIALPTESSTPLSAIIPHISTKTIDSWMSIMVPKRVQVILPKFTAVAQTDLKEPLKVLGITDMFDSSKANFAKITTGSENLHVSHILQKAKIEVSEDGTKASAATTAILIARSSPPWFIVDRPFLFFIRHNPTGAVLFMGQINKP
Q: Which “effect on IL-1 induced cartilage degradation (in words)” value (cartilage degradation) does the source give for B1 here?
A: can ameliorate this degradation

Q: For YSLDEERHRRLMWEENKKKIEAH [p117], which i.c. 50 (human liver Cathepsin L [6]) is on record?
A: 5.3 µM
